From paper PMC11431768, “Mechanistic Insights into Substrate Recognition of Human Nucleoside Diphosphate Kinase C Based on Nucleotide-Induced Structural Changes” (International Journal of Molecular Sciences, 2024)

B1: human nucleoside diphosphate kinase C, N-terminally truncated (residues Thr18–Glu169), untagged (enzyme, UniProt Q13232 18-169, looked up)
chain: TGAHERTFLAVKPDGVQRRLVGEIVRRFERKGFKLVALKLVQASEELLREHYAELRERPFYGRLVKYMASGPVVAMVWQGLDVVRTSRALIGATNPADAPPGTIRGDFCIEVGKNLIHGSDSVESARREIALWFRADELLCWEDSAGHWLYE
notes: human NDPK-C (nme3 gene product), residues Thr18-Glu169 of UniProt Q13232; The forward primer puts a start codon (Met) before Thr18; The results speak of a 156-residue subunit, while Thr18-Glu169 is 152 residues; The extra residues are probably what TEV cleavage leaves of the tag plus the Met; also called NDPK-C; NDPK isoform C; source: E. coli BL21 (DE3), purified (HisTrap, SEC, TEV cleavage, …)
B2: His-tagged human NDPK-C (residues Thr18–Glu169) (enzyme, UniProt Q13232 18-169, looked up)
chain: B1 chain
notes: human NDPK-C (nme3 gene product), residues Thr18-Glu169 of UniProt Q13232; the expression plasmid encodes a 173 amino acid polypeptide including the N-terminal TEV-cleavable His-tag; 173 residues in all; also called His-NDPK-C; His-tagged NDPK-C; not shown: His6, N-terminal, kept

Columns and labels:
[1] = target: the molecule itself; test: SEC-MALS; SEC-RI-MALS; Superdex 200 5/150; samples at 60 to 600 µM; gel filtration buffer (20 mM Tris-HCl, 300 mM NaCl, 5 mM MgCl2, DTT); 0.3 mL/min; RI at 25 °C
[2] = target: the molecule itself; test: mass photometry; His-tagged NDPK-C directly after affinity purification

Protein	stoichiometry N [1]	stoichiometry N [2]
B1	6	
B2		6
